Laboratory results published in patent US20140199327A1, “METHODS OF PROMOTING DIFFERENTIATION” (Genentech, Inc., priority 2011, published 2014).

Assays:
[1] = molecular target: T1, SENP5-Flag (human SENP5 with C-terminal Flag epitope) (human, UniProt Q96HI0 1-755, limits assumed); test: Flag immunoprecipitation of DUBs from 293T cells cotransfected with ID2, MG-132 treated (FIG. 2B)
T1 sequence (looked up): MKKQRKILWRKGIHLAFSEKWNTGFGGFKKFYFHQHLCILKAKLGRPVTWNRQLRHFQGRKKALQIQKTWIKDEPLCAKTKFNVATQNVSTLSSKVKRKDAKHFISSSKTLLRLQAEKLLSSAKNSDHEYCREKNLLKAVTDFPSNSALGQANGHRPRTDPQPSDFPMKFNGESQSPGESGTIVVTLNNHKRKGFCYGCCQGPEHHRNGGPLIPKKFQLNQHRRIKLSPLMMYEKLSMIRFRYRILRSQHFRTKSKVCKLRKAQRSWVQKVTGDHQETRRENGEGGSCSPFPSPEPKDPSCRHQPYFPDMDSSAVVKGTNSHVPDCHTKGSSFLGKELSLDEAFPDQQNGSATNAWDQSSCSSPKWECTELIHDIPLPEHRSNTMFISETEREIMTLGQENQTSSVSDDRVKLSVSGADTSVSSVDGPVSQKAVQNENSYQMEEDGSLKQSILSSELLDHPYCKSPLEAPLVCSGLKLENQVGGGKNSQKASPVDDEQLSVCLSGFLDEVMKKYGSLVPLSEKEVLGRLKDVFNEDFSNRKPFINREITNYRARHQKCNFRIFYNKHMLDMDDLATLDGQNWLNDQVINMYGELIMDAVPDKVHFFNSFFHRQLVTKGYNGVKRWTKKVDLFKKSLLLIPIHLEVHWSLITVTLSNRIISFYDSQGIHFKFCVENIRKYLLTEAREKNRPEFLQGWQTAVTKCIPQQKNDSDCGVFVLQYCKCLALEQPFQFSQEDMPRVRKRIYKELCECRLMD
Method: (§1) FIG. 2. […] (A) Western blot (WB) analysis of 293T transfected with Flag-tagged deubiquitinases (DUBs) or an empty vector (−). Where indicated, cells were treated with […] MG-132 for 4 hr. (B) Flag-tagged DUBs were immunoprecipitated (IP) from 293T cells cotransfected with ID2 and treated with […] MG-132 for 6 hr.

[2] = molecular target: USP9Y-Flag (human USP9Y with C-terminal Flag epitope) (human, UniProt O00507 1-2555, limits assumed); test: as above
Method: as §1

[3] = molecular target: T2, USP37-Flag (human USP37 with C-terminal Flag epitope) (human, UniProt Q86T82 1-979, limits assumed); test: as above
T2 sequence (looked up): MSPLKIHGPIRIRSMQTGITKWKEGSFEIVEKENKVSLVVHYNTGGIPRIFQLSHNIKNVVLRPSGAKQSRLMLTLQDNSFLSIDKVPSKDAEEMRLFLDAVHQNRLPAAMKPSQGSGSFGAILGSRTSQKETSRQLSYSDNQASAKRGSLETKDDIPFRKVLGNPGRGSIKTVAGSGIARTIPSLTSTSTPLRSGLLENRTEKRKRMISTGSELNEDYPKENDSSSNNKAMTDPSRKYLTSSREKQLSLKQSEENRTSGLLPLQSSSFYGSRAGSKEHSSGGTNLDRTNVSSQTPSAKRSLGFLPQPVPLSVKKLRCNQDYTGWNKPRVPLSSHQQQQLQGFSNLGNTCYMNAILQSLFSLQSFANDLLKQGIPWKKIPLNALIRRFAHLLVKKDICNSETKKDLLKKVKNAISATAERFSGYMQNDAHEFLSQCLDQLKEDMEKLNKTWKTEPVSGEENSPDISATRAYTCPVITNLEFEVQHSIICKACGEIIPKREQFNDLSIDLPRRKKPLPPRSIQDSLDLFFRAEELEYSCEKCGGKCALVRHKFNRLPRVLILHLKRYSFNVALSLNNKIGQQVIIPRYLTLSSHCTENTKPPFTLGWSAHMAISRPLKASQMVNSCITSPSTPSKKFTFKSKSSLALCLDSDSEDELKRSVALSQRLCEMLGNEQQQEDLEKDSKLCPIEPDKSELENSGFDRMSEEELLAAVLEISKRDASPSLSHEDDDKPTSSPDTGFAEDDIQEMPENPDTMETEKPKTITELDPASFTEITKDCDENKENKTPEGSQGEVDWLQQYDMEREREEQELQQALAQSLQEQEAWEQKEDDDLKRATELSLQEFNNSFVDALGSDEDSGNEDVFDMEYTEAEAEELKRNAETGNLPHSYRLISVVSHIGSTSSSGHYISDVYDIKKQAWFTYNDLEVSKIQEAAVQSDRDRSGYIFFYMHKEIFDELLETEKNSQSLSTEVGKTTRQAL
Method: as §1

[4] = molecular target: T3, USP1-Flag (wild-type human USP1 with in-frame C-terminal Flag epitope) (human, UniProt O94782 1-785); test: Flag immunoprecipitation of DUBs from 293T cells cotransfected with ID2, MG-132 treated; blot for ID2 (FIG. 2B)
T3 construct: Synthesised human USP1 cDNA in pRK2001, expressed in 293T cells; also called USP1 wild-type; WT
T3 sequence: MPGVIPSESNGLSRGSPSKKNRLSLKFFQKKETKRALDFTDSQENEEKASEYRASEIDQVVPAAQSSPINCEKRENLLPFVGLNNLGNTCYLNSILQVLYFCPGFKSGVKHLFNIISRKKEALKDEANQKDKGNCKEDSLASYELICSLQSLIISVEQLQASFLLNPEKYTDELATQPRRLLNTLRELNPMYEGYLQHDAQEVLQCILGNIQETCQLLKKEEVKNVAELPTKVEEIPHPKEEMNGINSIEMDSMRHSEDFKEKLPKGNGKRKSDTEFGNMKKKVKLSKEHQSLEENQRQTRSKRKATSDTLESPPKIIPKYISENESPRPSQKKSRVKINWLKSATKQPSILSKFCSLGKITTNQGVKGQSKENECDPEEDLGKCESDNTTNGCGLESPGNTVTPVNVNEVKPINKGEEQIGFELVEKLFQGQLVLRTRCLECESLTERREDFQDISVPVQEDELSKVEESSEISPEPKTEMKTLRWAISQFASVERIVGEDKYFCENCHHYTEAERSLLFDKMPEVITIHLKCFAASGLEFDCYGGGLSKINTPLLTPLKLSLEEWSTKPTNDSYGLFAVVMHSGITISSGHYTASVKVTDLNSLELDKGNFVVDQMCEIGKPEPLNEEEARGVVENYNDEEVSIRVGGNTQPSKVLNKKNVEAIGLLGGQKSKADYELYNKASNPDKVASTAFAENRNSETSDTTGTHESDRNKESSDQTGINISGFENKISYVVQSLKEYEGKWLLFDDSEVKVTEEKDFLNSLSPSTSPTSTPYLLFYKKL
Method: as §1

Chain of USP9Y-Flag (human USP9Y with C-terminal Flag epitope) (O00507 whole entry): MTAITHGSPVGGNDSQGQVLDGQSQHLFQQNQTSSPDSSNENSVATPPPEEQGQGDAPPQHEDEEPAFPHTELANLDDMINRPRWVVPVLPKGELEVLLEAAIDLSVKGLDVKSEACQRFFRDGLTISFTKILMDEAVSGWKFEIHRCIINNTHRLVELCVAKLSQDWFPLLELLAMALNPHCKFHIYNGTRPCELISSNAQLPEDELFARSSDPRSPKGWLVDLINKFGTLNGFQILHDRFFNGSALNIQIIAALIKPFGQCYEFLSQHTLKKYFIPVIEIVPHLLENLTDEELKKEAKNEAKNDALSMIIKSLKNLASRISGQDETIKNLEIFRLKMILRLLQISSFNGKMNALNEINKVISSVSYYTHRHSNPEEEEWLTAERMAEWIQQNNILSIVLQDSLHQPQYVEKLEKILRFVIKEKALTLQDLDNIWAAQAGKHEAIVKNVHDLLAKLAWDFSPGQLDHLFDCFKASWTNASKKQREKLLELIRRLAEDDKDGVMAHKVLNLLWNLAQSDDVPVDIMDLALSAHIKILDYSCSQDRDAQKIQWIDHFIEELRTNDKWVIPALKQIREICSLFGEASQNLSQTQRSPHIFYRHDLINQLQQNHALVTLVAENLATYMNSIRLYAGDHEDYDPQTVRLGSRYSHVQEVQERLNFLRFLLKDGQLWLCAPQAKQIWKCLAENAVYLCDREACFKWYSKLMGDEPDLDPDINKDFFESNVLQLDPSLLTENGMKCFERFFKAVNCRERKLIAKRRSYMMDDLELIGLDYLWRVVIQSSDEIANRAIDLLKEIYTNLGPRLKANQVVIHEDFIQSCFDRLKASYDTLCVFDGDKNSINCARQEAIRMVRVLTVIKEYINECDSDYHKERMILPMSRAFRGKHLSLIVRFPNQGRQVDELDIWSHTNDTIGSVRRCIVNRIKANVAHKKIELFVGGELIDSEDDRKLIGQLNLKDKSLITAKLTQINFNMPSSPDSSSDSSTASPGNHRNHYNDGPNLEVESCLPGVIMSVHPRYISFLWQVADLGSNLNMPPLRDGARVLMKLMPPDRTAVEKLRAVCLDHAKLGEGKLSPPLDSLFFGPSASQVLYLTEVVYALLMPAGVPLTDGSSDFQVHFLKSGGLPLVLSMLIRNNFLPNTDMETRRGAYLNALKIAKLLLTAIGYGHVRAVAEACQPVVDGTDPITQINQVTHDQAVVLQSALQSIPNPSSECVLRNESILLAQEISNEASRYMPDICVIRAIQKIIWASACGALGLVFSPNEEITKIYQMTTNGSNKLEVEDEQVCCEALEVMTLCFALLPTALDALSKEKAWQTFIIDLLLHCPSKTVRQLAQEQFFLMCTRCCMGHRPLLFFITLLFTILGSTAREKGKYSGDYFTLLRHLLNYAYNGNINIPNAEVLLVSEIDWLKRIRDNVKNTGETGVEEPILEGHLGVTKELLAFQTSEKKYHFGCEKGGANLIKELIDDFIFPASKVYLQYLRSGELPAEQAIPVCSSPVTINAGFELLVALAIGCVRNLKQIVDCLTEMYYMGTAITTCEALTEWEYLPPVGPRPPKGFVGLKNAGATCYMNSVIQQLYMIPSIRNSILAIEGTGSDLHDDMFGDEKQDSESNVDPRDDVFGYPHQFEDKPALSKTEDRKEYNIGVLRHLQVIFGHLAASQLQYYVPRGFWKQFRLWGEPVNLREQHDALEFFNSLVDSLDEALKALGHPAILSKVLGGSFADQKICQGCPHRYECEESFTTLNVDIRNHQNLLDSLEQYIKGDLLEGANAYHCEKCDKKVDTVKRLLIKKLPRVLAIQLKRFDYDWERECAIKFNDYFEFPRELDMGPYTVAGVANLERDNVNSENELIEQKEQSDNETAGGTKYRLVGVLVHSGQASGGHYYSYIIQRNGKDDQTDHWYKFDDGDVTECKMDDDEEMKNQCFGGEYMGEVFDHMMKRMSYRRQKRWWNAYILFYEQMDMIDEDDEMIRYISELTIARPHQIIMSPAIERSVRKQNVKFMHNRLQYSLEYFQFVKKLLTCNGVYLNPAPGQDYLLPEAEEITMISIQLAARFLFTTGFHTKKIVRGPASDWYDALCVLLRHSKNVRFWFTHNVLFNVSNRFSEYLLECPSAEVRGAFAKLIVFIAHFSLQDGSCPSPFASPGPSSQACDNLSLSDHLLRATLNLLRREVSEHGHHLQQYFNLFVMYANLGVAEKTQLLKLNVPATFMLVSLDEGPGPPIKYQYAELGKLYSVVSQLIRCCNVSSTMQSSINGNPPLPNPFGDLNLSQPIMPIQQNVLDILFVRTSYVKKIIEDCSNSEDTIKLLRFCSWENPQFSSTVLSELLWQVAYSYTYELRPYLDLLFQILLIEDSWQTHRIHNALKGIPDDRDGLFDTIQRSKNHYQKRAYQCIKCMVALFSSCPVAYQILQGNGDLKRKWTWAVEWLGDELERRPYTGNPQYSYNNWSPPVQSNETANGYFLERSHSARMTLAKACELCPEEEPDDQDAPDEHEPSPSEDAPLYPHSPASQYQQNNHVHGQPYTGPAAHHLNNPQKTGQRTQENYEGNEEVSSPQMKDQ

- binding result [1]: no binding
- binding result [2]: no binding
- binding result [3]: no binding
- binding result [4]: binds
B1: ID2 (co-transfected / co-expressed in 293T cells) (other)
chain: MKAFSPVRSVRKNSLSDHSLGISRSKTPVDDPMSLLYNMNDCYSKLKELVPSIPQNKKVSKMEILQHVIDYILDLQIALDSHPTIVSLHHQRPGQNQASRTPLTTLNTDISILSLQASEFPSELMSNDSKALCG
notes: ID2 was amplified from Jurkat-derived cDNA; The methods describe only a C-terminal Flag version in pRK2001
